The record followed here is the supplement of paper PMC9170038.

The subject of this series is MS2 coat protein. Description: apparent KD of MS2 coat protein; designed switch direction (-1 OFF switch, 1 ON switch): -1; higher = weaker reporter binding. Put shortly: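 The apparent KD reported per design is the median over clusters of curve fits to normalised cluster fluorescence. The RNA switches were transcribed on Illumina chips by stalled E. coli RNA polymerase. SNAP-549-labelled MS2 coat protein was titrated from 0.7 or 1.5 nM, doubling up to 3 µM, in Tris-HCl pH 7.5 buffer containing KCl, MgCl2, BSA, DTT, tRNA and Tween-20, with no input, 200 uM small-molecule ligand, or an oligonucleotide input.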

The mark [1] stands for this setting: Eterna round: R95, input ligand: FMN 200 uM.
Setting [2] is: Eterna round: R95, input ligand: microRNA oligo, concentration not stated.
[3] abbreviates: Eterna round: R95, input ligand: none.
[4] abbreviates: input ligand: microRNA oligo, concentration not stated.

With “GUGUUACAUGAGGAUCACCCAUGUGAGGAUAUGAGUCAGUCACGGUGACGUGGCUGACUCAGAAGGCACAAAGG [Mat - Exclusion 1 - JL Mod - D39] (Eterna round: R97, puzzle: Exclusion 1)”, the “apparent KD of MS2 coat protein” value (input ligand: FMN 200 uM) was 291 nM and the “apparent KD of MS2 coat protein” value (input ligand: none) is 93.9 nM.
With “GUUAAACAUGAGGAUCACCCAUGUAAGGAUAUGCUGAGGUAGAGAUGAAGUGAAUGAAGCAGAAGGUACAAUUG [Mat - Mod of JL D55] (puzzle: Exclusion 1)”, the “apparent KD of MS2 coat protein” value is 62.6 nM under setting [1], 81.8 nM under setting [2] and 78.8 nM under setting [3].
Consider “GUUAACGCAGGAUAUUAGUACAUGUACAUGAGGAUCACCCAUGUUUAGUGGGUCUAGGAAUAAGAAGGGCGAUGAA [JR_Ex5_Sub007] (Eterna round: R97, puzzle: Exclusion 5)”, for which the “apparent KD of MS2 coat protein” value was found to be 280 nM (input ligand: FMN 200 uM) and 535 nM (input ligand: none).
Regarding “GUUAAGUGAGGAUAUGGUAAAUUAAUUAUUAAUUAAUUAAUCCAGAAGGCACAUGAGGAUCACCCAUGUAAAUG [Mat - Exclusion 4 - D87] (puzzle: Exclusion 4)”, the “apparent KD of MS2 coat protein” value runs as follows: under setting [1], 54.6 nM; under setting [2], 30.5 nM; under setting [3], 31.5 nM.
As for “GUUAGACAUGAGGAUCACCCAUGUGAGGAUAUGAUGCGAUCGUGCUGACAUGAUCGCAUCAGAAGGCACAUAUG [Mat - Mod of JL D66] (puzzle: Exclusion 1)”, under setting [2], the “apparent KD of MS2 coat protein” value was determined as 95.7 nM.
For the sequence “GUUAGUUAAGGAUAUACAGGGAGCUGCGGCGUCUCGCCGCAACAUGAGGAUCACCCAUGUAGAAGGUGGCCAUU [JL ViennaUCT Enbibi mod 3] (puzzle: Exclusion 2)”, the “apparent KD of MS2 coat protein” value under setting [2] turned out to be 471 nM.
For the sequence “GUUAUGUAAGGAUAUAUGAGUCACGGAAAUAAACCGUGAAGAUAGAAGGUACAUGAGGAUCACCCAUGUAAGGC [Mod of Anonveat 9 - Jieux - Exclusion 4] (Eterna round: R97, puzzle: Exclusion 4)”, the “apparent KD of MS2 coat protein” value reads like this: (input ligand: FMN 200 uM) 16.7 nM; (input ligand: none) 14 nM.
The like results for “GUUAUGUCAGGAUAUGCUAAUGAUGAGUGCUCAGACAUGAUGCAGAAGGGACAUGAGGAUCACCCAUGUACUGA [EX4 #12] (Eterna round: R97, puzzle: Exclusion 4)” were, in that order, 102 nM and 35.3 nM.
For “GUUCGACAUGAGGAUCACCCAUGUGAGGAUAUACGAUUAGCUGCUAGGUAGUUAGUAUGUAGAAGGUGCAUGAA [EX1 #73] (Eterna round: R97, puzzle: Exclusion 1)”, in that order: 55.2 nM and 41.7 nM.
“GUUCGACAUGAGGAUCACCCAUGUGAGGAUAUACGAUUAGCUGCUAGGUAGUUAGUAUGUAGAAGGUGCGUGAA [EX1 #72] (Eterna round: R97, puzzle: Exclusion 1)”: the “apparent KD of MS2 coat protein” value runs as follows: (input ligand: FMN 200 uM) 44 nM; (input ligand: none) 41.6 nM.
For “GUUGCUACUGAGGAUAUUAUUUUACCCGACUGAUAAGAAGGCAGUACAUGAGGAUCACCCAUGUGGGUAGCCAG [Polaris15] (Eterna round: R97, puzzle: Exclusion 6)”, in that order: 44.1 nM and 21.8 nM.
For “GUUGUGUGAGGAUAUGCCUGGCCGUGAGGCCAGAUUGAGUGGCAGAAGGUACAUGAGGAUCACCCAUGUACGGG [salish99_ex4_4_004] (Eterna round: R97, puzzle: Exclusion 4)”, in that order: 54.1 nM and 24.4 nM.
Turning to “GUUGUUCGAGGAUAUACAUGAGGAUCACCCAUGUGUGUUGUGGGCGACGUUCGUUUAUGUAGAAGGCGGGCGGC [-27.2, -23.9 kcal, 19% A] (Eterna round: R97, puzzle: Exclusion 3)”, the “apparent KD of MS2 coat protein” value stood at 78.2 nM (input ligand: FMN 200 uM) and 50.1 nM (input ligand: none).
The like results for “GUUUAGUGAGGAUAUAAGGCUUCGAUCGAGCGCGGUCUGCUACAGAAGGCACAUGAGGAUCACCCAUGUUUCUC [salish99_ex4_r4_311] (Eterna round: R97, puzzle: Exclusion 4)” were, in that order, 29.2 nM and 34.4 nM.
The like results for “GUUUCACAUGAGGAUCACCCAUGUGAGGAUAUGAAUUUGUUAACCGUAGUUAAUAGAUUCAGAAGGCGCGUGAU [JRxlusion 1- Jieux - Exclusion 1] (Eterna round: R97, puzzle: Exclusion 1)” were, in that order, 66.6 nM and 70.3 nM.
For “GUUUGCACGCUGCGGUCCUACAUGAGGAUCACCCAUGUGGUCUGGUGGCGUGGGUCGCCGGACUUGGCUCGUCUUGG [salish99_S_TOV1_R5_039] (Eterna round: R97, puzzle: Sensor, turn-off variant 1)”, in that order: 15 nM and 14.8 nM.
With “UAAAAGAAAGUAAGGAUAUCUAAAUUGGAAAAGAGAGAGAAGGUACAUGAGGAUCACCCAUGUAGGGUAUCCUG [Ritien] (Eterna round: R97, puzzle: Brourd's mod of Exclusion 4)”, the “apparent KD of MS2 coat protein” value was 41.8 nM (input ligand: FMN 200 uM) and 42.2 nM (input ligand: none).
As to “UAAAAGCUAGGAUAUACAUGAGGAUCACCCAUGUACCGGCUUGGCCCUGGUCCUAAAUGUAGAAGGAGCACGCC [Zarebebi] (puzzle: Exclusion 3)”, the “apparent KD of MS2 coat protein” value under setting [2] turned out to be 14.2 nM.
In the case of “UAAAGUGAGUCCUCGCAGCAGCGUAGGGCGGUGCUAGCUACAUGAGGAUCACCCAUGUUUUCGCUCGUCCAGCACCU [Ceaorreti] (Eterna round: R96, puzzle: Sensor v2, turn-off variant 2)”, the “apparent KD of MS2 coat protein” value reads like this: (input ligand: FMN 200 uM) 89.2 nM; under setting [4], 59.2 nM; (input ligand: none) 101 nM.
Consider “UAAAUGUGAGGAUAUCAGGUGUGCUAGAGAACUGGUACAUCUGAGAAGGCACAUGAGGAUCACCCAUGUUCUUC [Mat - Exclusion 4 - Mod of JL - D56] (puzzle: Exclusion 4)”, for which the “apparent KD of MS2 coat protein” value under setting [2] was 38.3 nM.
On to “UAACGUGGCCUGAUCCUCCCUAACAUGAGGAUCACCCAUGUCUAGGAUAUCCGAACAAACAACGAGGAGAAGGAGACGAAACAU [Veleedan] (Eterna round: R96, puzzle: Exclusion NG 3)”, for which the “apparent KD of MS2 coat protein” value was 37.5 nM (input ligand: FMN 200 uM), 22.7 nM under setting [4] and 28.3 nM (input ligand: none).
For the sequence “UAACUACAUGUAGGAUAUGCGUGGCGAAGCUAUGCAGAAGGACAUGAGGAUCACCCAUGUUUUAGCGUCUGCGUACAGAUGCGU [JL ENG1 1.50] (Eterna round: R96, puzzle: Exclusion NG 1)”, the “apparent KD of MS2 coat protein” value is, setting by setting: (input ligand: FMN 200 uM) 34.8 nM; under setting [4], 13.1 nM; (input ligand: none) 19.1 nM.
Consider “UAACUUCUAGUAAGGAUAUCGGUCCCAAGGGACAACGAGAAGGUACAUGAGGAUCACCCAUGUGAAAUAAGAAU [Mod of Zala 2 - Jieux - Brourd's Mod of Exclusion 4] (Eterna round: R97, puzzle: Brourd's mod of Exclusion 4)”, for which the “apparent KD of MS2 coat protein” value (input ligand: FMN 200 uM) was determined as 72.9 nM and the “apparent KD of MS2 coat protein” value (input ligand: none) was found to be 20.7 nM.
Regarding “UAAGCUCUGUCAGGAUAUCCCUGUAAACGCAACGGAGAAGGGACAUGAGGAUCACCCAUGUGCGGGCCCAACGCGCUCGGGUCC [Dilacesole] (Eterna round: R96, puzzle: Exclusion NG 1)”, the “apparent KD of MS2 coat protein” value runs as follows: (input ligand: FMN 200 uM) 63.6 nM; under setting [4], 23.6 nM; (input ligand: none) 35.1 nM.
As to “UAAGUUUACCGAGGAUAUGGUCCAUAAUUUUUACCAGAAGGCGGACUCAACAUGAGGAUCACCCAUGUAUAAAGGGUAUUUGGU [JR_ExcNG1_Sub046] (Eterna round: R96, puzzle: Exclusion NG 1)”, the “apparent KD of MS2 coat protein” value runs as follows: (input ligand: FMN 200 uM) 51.2 nM; under setting [4], 27.4 nM; (input ligand: none) 35.8 nM.
For “UAAUAACAUGUAGGAUAUGCGUGGCGAAGCUAUGCAGAAGGACAUGAGGAUCACCCAUGUUAAAGCGUCUGCGUACAGAUGCGA [Mat - Exclusion NG 1 - Mod of JL - D97] (Eterna round: R96, puzzle: Exclusion NG 1)”, in that order: 188 nM, 30.1 nM and 31.1 nM.
Consider “UAAUAUAGUGUGAGGAUAUGCUGGUCCUUGGAUCAGCAGAAGGCACAUGAGGAUCACCCAUGUAGUUUAUUUUA [Mat - Exclusion 4 - JL Mod - D2] (puzzle: Brourd's mod of Exclusion 4)”, for which the “apparent KD of MS2 coat protein” value worked out at 141 nM under setting [1], 28.2 nM under setting [2] and 28.2 nM under setting [3].
For the sequence “UAAUAUAGUGUGAGGAUAUGCUGGUCGAUAGAUCAGCAGAAGGCACAUGAGGAUCACCCAUGUAAUAUAUUAAA [Mat - Exclusion 4 - JL Mod - D36] (puzzle: Brourd's mod of Exclusion 4)”, the “apparent KD of MS2 coat protein” value was 64.6 nM under setting [1], 30.7 nM under setting [2] and 42.9 nM under setting [3].
In the case of “UACAUGAGGAUCACCCAUGUUUUGUCGUGUAUGGUAUUUAUCUAGGAUAUCAAGUUAUUAAUUUAUGAGAAGGAGAAUAUUAAU [JMF's solution 32] (Eterna round: R96, puzzle: Exclusion NG 3)”, the “apparent KD of MS2 coat protein” value runs as follows: (input ligand: FMN 200 uM) 43.9 nM; under setting [4], 27.4 nM; (input ligand: none) 42.1 nM.
As to “UACAUGAGGAUCACCCAUGUUUUGUCGUGUAUGGUAUUUAUCUAGGAUAUCAAUAUAUUUAUUUAUGAGAAGGAGAAUAUUAAU [JMF's solution 11] (Eterna round: R96, puzzle: Exclusion NG 3)”, under setting [4], the “apparent KD of MS2 coat protein” value amounted to 28.5 nM.
